# Test: yeast display, Sf9 membrane polyspecificity reagent, FACS + sequencing; frameworks hold sequencing errors
# Summary of the method: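 Galactose induction of a Saccharomyces cerevisiae BJ5465 synthetic nanobody display library ran 36–48 hours. The cells were then stained for 1 hour at 4 °C with 10% biotinylated, detergent-solubilized Sf9 membrane reagent, pulled down on streptavidin microbeads and FACS-sorted into low and high (top ~1%) gates on expression and reagent-binding fluorescence. Labels for polyreactivity follow the gate of origin.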
row,Sequence,polyreactivity (PSR sort gate)
1,QVQLVESGGGLVQAGGSLRLSFAASGRTFNTYTMGWYRQAPGKERELVAAITGTGGSTFYADSVKGRFTISRDNAKNTVYLQMNSLKPEDTAVYYCNADLEVTIGVYTDGFDSDYWGQGTQVTVSS,low polyreactivity
2,QVQLVESGGGLVQAGGSLRLSFAASGSIFGFNAMGWYRPAPGKERELVAAISSGGITNYADSVKGRFTISRDNAKNTVYLQMNSLKAEDTAVYYCAARAVSEDYYEFDYWGQGTQVTVSS,low polyreactivity
3,QVQLVESGGGLVQAGGSLRLSFAASGSILYIYAMGWYRQAPGKERELVASISRSGGRTYDADSVNGRFTISRDNAKNTVYLQMNSLKPEDTAVYYCDAVTGGGSKMDYWGQGTQVTVSS,high polyreactivity
4,QVQLVESGGGLVQAGGSLRLSFAASGSTFDNYAMGWYRQAPGKERELVAAIRRGGSTYYADSVKGRFTISRDNAKNTVYLQMNSLKPEDTAVYYCNAPITRFEGYFYWGQGTQVTVSS,high polyreactivity
5,QVQLVESGGGLVQAGGSLRLSFAASGSTFTYNDMGWYRQAPGKERELVARITFSSGRTYYADSVKGRFTISRDNAKNTVYLQMNSLKPEDTAVYYCARQWYWRPGYYIGQGYEYWGQGTQVTVSS,low polyreactivity
6,QVQLVESGGGLVQAGGSLRLSFPASGFTFFGYAMGWYRQAPGKERELVAAISTIDGDTYYADSVKGRFTISRDNAKNTVYLQMNSLKPEDTAVYYCAADDYIDGDDYWGQGTQVTVSS,low polyreactivity
7,QVQLVESGGGLVQAGGSLRLSGAASGFIFIHYAMGWYRQAPGKERELVAAIRASGTSTYYADSVKGRFTISRDNAKNTVYLQMNSLKPEDTAVYYCAAQGYLRLRTHFNYWGQGTQVTLSS,low polyreactivity
8,QVQLVESGGGLVQAGGSLRLSGAASGLIFWGYTMGWYRQAPGKERVLVAAISRRGGRTYYADSVKGRFTISRDNAKNTVYLQMHSLKPEDTAVDYCNADITSSGPKSDYWGQGTQVTVSS,high polyreactivity
9,QVQLVESGGGLVQAGGSLRLSGAASGRTLVPYAMGWYRQAPGKERELVAAISSGGSTNYADSVKGRFRISRDNAKNTVYLQMNSLKPEDTAVYYCAYCGQGTQVTVSS,low polyreactivity
10,QVQLVESGGGLVQAGGSLRLSGAASGSIFNRNAMGWYRQAPGKESELVARISWTAGSTYYADSEKARFTISRDYAKNTVYLQMNSLKPEDTAVYYCNDVKGYYDLYDKFDYWGQGTQVTVSS,low polyreactivity
11,QVQLVESGGGLVQAGGSLRLSGAASGSIFYSNARGWYRQAPGKERELVAAITVGGGRTYYADSVKGRFTISRDNAKNTVYLQMNSLKPEDTAVYYCAADSHASTYDYWGQGTQVTVSS,low polyreactivity
12,QVQLVESGGGLVQAGGSLRLSGAASGSTCYFNAQGWFRPAPGKERELVAAITYSGGSTYYADSVKGRFTISRDNAKNTVYLQLNSLKPEDTAVYYCAAQWRRHSTRSRYYYWGQGTQVTVSS,high polyreactivity
13,QVQLVESGGGLVQAGGSLRLSLAASGLSLRNYAMGWYRQAPGKERELVADITTGGGRTYYADSVKGRFTISRDNAKNTVYLQMNSLKPEDTAVYYCAAPTHLHGHGNQNEFYYWGQGTQVTVSS,low polyreactivity
14,QVQLVESGGGLVQAGGSLRLSRAASGFIFSGNAMGWYRKAPGKERELVAVITTSGGSTYYADSVKGRFTISRDNAKNTVYLQMISMKPEDTAVYYCNKPGHRSGPPYDYWGQGTQVSVSS,high polyreactivity
15,QVQLVESGGGLVQAGGSLRLSRAASGGTFFVYMGWYRQAPGKERELVADISGSGGGTYYADSVKGRFTISRDNAKNTVYLQMNSLKPEDTAVYYCATDVPTGIIRMYWGQGTQVTVSS,low polyreactivity
16,QVQLVESGGGLVQAGGSLRLSSAANGMIYVSYAMGWYRQAPGKERELVATITRSGGSTYYADSVKGRFTISRDNAKNTVYLQMNSLKPEDTAVYYCARYWRTSGVRMDYWGQGTQVTVSS,high polyreactivity
17,QVQLVESGGGLVQAGGSLRLSSAASARIFGYYVMGWYRQAPGKERELVARIRSGGNTYYADSVKGRFTISRDNAKNTVYLQMNSLKPEDTAVYSCNADPRTGWYIYDYWGQGTQVTVSS,high polyreactivity
18,QVQLVESGGGLVQAGGSLRLSSAASGFIFIIYAMGWYRPAPGKERELVAGIRWSGGSTYYADSVKGRFTISRDNAKNTVYLQMNSLKPEDTAVYYCNKDRGSLTLYTYDYWGQGTQVTVSS,low polyreactivity
19,QVQLVESGGGLVQAGGSLRLSSAASGFIIPDYGMGWYRQAPGKDSELVAAISRNGVSTYYADSVKGRFTISRDTAKNTVYLQMNSLKPEATAVYYCAARYYRIRRVSKSGYYWGQGTQVTVSS,low polyreactivity
20,QVQLVESGGGLVQAGGSLRLSSAASGFISPSYALGWYRPAPGTERELDAAIRSSDGSTYYADSVKGRFTISRDTAMNSVYLQMNSLKPEDTAVYYCAGGGSYYRDDYWGQGTQVTVSS,low polyreactivity
21,QVQLVESGGGLVQAGGSLRLSSAASGFTFARYAMGWYRQAPGKERELVAAITFSGTRTYYADSVKGRFTISRDNAKNTVYLQMNSLKPEDTAVYYCAAVVQTKAYRKAVYYFSSYDYWGQGTQVTVSS,high polyreactivity

row,Sequence,polyreactivity (PSR sort gate)
1,QVQLVESGGGLVQAGGSLRLSSAASGFTFDYNTMGWDRQAPGKERELVAGISRGGGSTYYADSVKGRFTISRDNAKNTVYLQMNSLKPEDTAVYYCNTVLKRQRKNEYWGQGTQVTVSS,high polyreactivity
2,QVQLVESGGGLVQAGGSLRLSSAASGFTFKAYVMGWYRQAPGKERELVAASTRSGSSTYYADSVKGRFTISRDNGKNSVYLQMYSLKPEDTAVYYCAARYTQRPRRNYWGQVTQVTVSS,high polyreactivity
3,QVQLVESGGGLVQAGGSLRLSSAASGFTFPVYAMGWYRPATGKESELVAAISRRGGRTYYADSVKGRFTISRDNAKNRVYLQMNCLKPEDSAVYYCNKGETLYGSVPYDYWGQGTQLTVSS,high polyreactivity
4,QVQLVESGGGLVQAGGSLRLSSAASGFTFRIYAMGWYRQAPGKERELVATISWSGTSTYYADSVKGRFTISRDNAKNTVYLQMNSLKPEDTAVYYCAKDGVSFYWLNKYYYWGQGTQVTVSS,low polyreactivity
5,QVQLVESGGGLVQAGGSLRLSSAASGFTFRRYAMGWYRQAPGKERELVAAISTSGGNTYYADSVKGRFTISRDNAKNTVYLQMNSLKPEDTAVYYCYARRKDNGHGTPFDDYWGQGTQVTVSS,high polyreactivity
6,QVQLVESGGGLVQAGGSLRLSSAASGFTFSGYAMGWYRQAPVKERELVAAISSSGASTYYADSVKGRFTISRDNAKNTVYLQIHSLKPEDTAVYYCAAGTRLSDGYYWGQGTQVTVSS,high polyreactivity
7,QVQLVESGGGLVQAGGSLRLSSAASGFTFSLYRMGWYRQAPGKERELVASISNRGGTFYADSVKGRFTISRDNAKNTVYVQMNSLKPEETAVYYCARKTYYTGDFLGREYGYWGQGPQVTVSS,low polyreactivity
8,QVQLVESGGGLVQAGGSLRLSSAASGFTFVGYAMGWSRQAPGKERELVAAITGRGGTTYYADSVKGRFTISRDNAKNTVYLQMNSLKPEDTSVYYCAADTPSFWTEVDSWGQGTQVTLSS,low polyreactivity
9,QVQLVESGGGLVQAGGSLRLSSAASGGIFQLYAMGWYRQAPGKERELVADISRSGGSTYYADSVKGRFTISRDTAKNTVYLQMNSLKPEDTAVYYCAARYWTSIVRYRGDYWGQGTQVTVSS,high polyreactivity
10,QVQLVESGGGLVQAGGSLRLSSAASGGIFRYNAMGWYRQAPGKERELVAGISYRGGTTYYADSVKGRFTISRDNAKNTVYLQMNSLKPEDTAVYYCAAAASSPGGWFYYWGQVTQVTVSS,high polyreactivity
11,QVQLVESGGGLVQAGGSLRLSSAASGGIFSRYGMGSYRQAPGKERELVAAITWSGGRTYYADSVKGRFTISRDNAKNTVYLQMNSLKPEETAVYYCAALETSFSSVGYEYWGQGTQVTVSS,high polyreactivity
12,QVQLVESGGGLVQAGGSLRLSSAASGIIFPGYAMVWYRQAPGKERELVAAISSGGDTYYADSVKGRFTISRDNAKNTVYLQMNSLKPEDTGVYYCTAAQLSSDRTSNYGYYPWYEYWGQGTQVTVSS,low polyreactivity
13,QVQLVESGGGLVQAGGSLRLSSAASGITFERNGMGWYRQAPGKERELVAAIRSGGSTYYADSVKGRFTISRDNAKITVYLQMNSQKPEDTAVYYCAAVTQGGYTYLGDYWGQGTQVTVSS,low polyreactivity
14,QVQLVESGGGLVQAGGSLRLSSAASGITFFHYAMGWYRQEPGKERELVATISWRAGSTYADSVKGRFTISRDNAKKTVYLQMNSLKPEDTAVYYCNAVWTYHSGSGGYLFDYWGLGTQVTVSS,low polyreactivity
15,QVQLVESGGGLVQAGGSLRLSSAASGITFYFYVMGWYRQAPGKERELVADISTSDDSTYYADSVKGRFTISRDNAKNTVYLQMNSLKPEDTAVYYCATATRTYSAWYEYDYWGQGTQVTVSS,low polyreactivity
16,QVQLVESGGGLVQAGGSLRLSSAASGLIFYSYTMGWNRQAPGKERELVAVISRSGTSTYYADSVKGRFTISRDNAKNTVYLQMNSLKPEDTSVYYCAALTRSGPYAYEYWGQGTQVTVSS,high polyreactivity
17,QVQLVESGGGLVQAGGSLRLSSAASGLNFYWYAMGWSRQAPGKERELVAAISTAGSTNYADSVKGRFTISRDNAKNTVYLQMISLKPEDTAVYYCNARIAYRYSNYGYWGQGTQVTVSS,low polyreactivity
18,QVQLVESGGGLVQAGGSLRLSSAASGLTFYRNAMGWYRQAPGKERELVAGISSSGASTYYADSVKGRFTISRDNAKNTVYLQMNSLKPEDTAVYYCAVRFYGRYLRYNYWGQGTQVTVSS,high polyreactivity
19,QVQLVESGGGLVQAGGSLRLSSAASGLTFYVYAMGWYRQGPGKEREWVARITWSGGSTYYADSVKGRFTISRDHAKNTVYLQMNSLKPEDTAVYYCAAEWSEESDYWGQGTQVTVSS,low polyreactivity
20,QVQLVESGGGLVQAGGSLRLSSAASGLTIYYYAMGWYRQAPGKERELVAAITWRGGSTYYADSVKGRFTISRDNAKYPDYLQMNCLIPAVTAVYYSAADPGPYGYYYWGQGTQVTVSS,low polyreactivity

# Source: the nanobody polyreactivity screen of Harvey et al. (2022)
